2 molecules from patent publication US20230357387A1 (published 2023) can be followed below.

Assay [1] has as its target T1, human ZIP12 on human ZIP12 expressing transfectant cells (human, UniProt Q504Y0 1-691).
T1 construct: Zinc transporter; also called ZIP12 transfected cells
The experiment in a line: flow cytometry-based reactivity screening, 63A11 lineage (FIG. 7).

For assay [2], the target named is T2, ZIP4 as tested by flow cytometry (human, UniProt Q6P5W5 23-647).
T2 sequence: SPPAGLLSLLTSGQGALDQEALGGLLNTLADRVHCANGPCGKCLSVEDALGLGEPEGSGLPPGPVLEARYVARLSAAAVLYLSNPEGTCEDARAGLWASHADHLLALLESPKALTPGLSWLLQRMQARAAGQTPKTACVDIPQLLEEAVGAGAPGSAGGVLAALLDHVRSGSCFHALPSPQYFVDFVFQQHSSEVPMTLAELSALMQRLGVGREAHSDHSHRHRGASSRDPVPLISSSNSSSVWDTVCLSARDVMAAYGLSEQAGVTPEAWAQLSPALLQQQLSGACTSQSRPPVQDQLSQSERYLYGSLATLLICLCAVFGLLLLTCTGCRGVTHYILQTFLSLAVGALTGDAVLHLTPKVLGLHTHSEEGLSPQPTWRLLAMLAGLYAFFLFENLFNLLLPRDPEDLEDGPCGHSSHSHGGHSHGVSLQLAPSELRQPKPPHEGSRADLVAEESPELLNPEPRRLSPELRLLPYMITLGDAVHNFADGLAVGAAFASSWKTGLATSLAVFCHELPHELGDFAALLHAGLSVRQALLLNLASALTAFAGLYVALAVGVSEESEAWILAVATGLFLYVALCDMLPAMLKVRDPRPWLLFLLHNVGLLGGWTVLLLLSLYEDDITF
Described as above.

Assay [3] addresses T3, human ZIP4 extracellular domain GST fusion (human, UniProt Q6P5W5 23-327).
T3 construct: also called hZIP4-ECD-GST; huZIP4-ECD-GST; not shown: glutathione S-transferase (GST) fusion partner
T3 sequence: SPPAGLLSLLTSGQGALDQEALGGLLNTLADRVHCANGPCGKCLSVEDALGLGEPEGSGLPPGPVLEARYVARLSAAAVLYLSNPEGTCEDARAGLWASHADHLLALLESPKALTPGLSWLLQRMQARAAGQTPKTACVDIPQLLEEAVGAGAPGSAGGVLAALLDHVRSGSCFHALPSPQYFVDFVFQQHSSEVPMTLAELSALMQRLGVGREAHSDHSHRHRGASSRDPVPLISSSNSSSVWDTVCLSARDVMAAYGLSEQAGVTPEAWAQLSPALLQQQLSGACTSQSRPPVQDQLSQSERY
The experiment in a line: ELISA-based reactivity screening, 63A11 lineage (FIG. 6).

Assay [4] concerns the target T4, human ZIP12 extracellular domain expressed as a GST fusion protein (human, UniProt Q504Y0 1-202).
T4 construct: also called hZIP12-ECD-GST; huZIP12-ECD-GST; not shown: glutathione S-transferase (GST) fusion partner
The assay is described as above.

In assay [5] the target is T3, human ZIP4 extracellular domain GST …. Description: ELISA-based reactivity screening, 51B12 lineage (FIG. 9).
In assay [6] the target is T4, human ZIP12 extracellular domain …. Described as above.

Changes are numbered by the printed parent chain.

B1: 63A11 parental antibody (antibody, human IgG1, kappa, V domains shown)
VH: EVQLVESGGGLVKPGGSRKLSCAASGFTFSDHGMHWVRQAPEKGLEWVAYISSGSSAIFYADTVKGRFTMSRDNAKNTLFLQMTSLRSEDTAMYFCARWTNLYAMDYWGQGTSVTVSS
VL: DIVLTQSPASLAVSLGQRATISCRASKSVSTSGYSYMHWYQQKPGQPPKLLIYLASNLESGVPARFSGSGSGTDFTLNIHPVEEEDAATYYCQHSRELPLTFGAGTKLELKR
notes: the full chains it gives are the chimeric ones; also called 19214; parent antibody
As for B1, the binding result in assay [1] was “binds”; in assay [2], “no binding”; in assay [3], “no binding”; in assay [4], “binds”.

B2: 51B12 parental antibody (antibody, human IgG1, kappa, V domains shown)
VH: B1 VH with H32Y, S55G, S56T, A57T, F59Y, M70I, F95Y
VL: B1 VL with L50F, L98V, L100Y, A104G, L110I
notes: also called 19213; parent antibody
Take B2: the results for the binding result in assay [5] and in assay [6] were “no binding” and “binds”, respectively.
